From article PMC9469209, “Structural basis for activation of Arf1 at the Golgi complex” (Cell reports, 2022)

B1: ΔN17-Arf1 (S. cerevisiae Arf1 lacking its N-terminal amphipathic helix) (domain or fragment, UniProt P11076 18-181, looked up)
chain: MRILMVGLDGAGKTTVLYKLKLGEVITTIPTIGFNVETVQYKNISFTVWDVGGQDRIRSLWRHYYRNTEGVIFVVDSNDRSRIGEAREVMQRMLNEDELRNAAWLVFANKQDLPEAMSAAEITEKLGLHSIRNRPWFIQATCATSGEGLYEGLEWLSNSLKNST
notes: Arf1 GTPase, Saccharomyces cerevisiae, truncated form lacking the N-terminal 17 residues (ΔN17); In the complex Arf1 is nucleotide-free (trapped with alkaline phosphatase); also called nucleotide-free Arf1; Arf1-NF; source: E. coli Rosetta2, purified as previously described (Richardson and Fromme, 2015; Richardson et al., 2012)
B2: Gea2 (full-length Saccharomyces cerevisiae Gea2) (enzyme, UniProt P39993 1-1459, looked up)
chain: MSDREFVTVDPVTIIIKECINLSTAMRKYSKFTSQSGVAALLGGGSEIFSNQDDYLAHTFNNLNTNKHNDPFLSGFIQLRLMLNKLKNLDNIDSLTILQPFLLIVSTSSISGYITSLALDSLQKFFTLNIINESSQNYIGAHRATVNALTHCRFEGSQQLSDDSVLLKVVFLLRSIVDSPYGDLLSNSIIYDVLQTILSLACNNRRSEVLRNAAQSTMIAVTVKIFSKLKTIEPVNVNQIYINDESYTNDVLKADTIGTNVESKEEGSQEDPIGMKVNNEEAISEDDGIEEEHIHSEKSTNGAEQLDIVQKTTRSNSRIQAYADDNYGLPVVRQYLNLLLSLIAPENELKHSYSTRIFGLELIQTALEISGDRLQLYPRLFTLISDPIFKSILFIIQNTTKLSLLQATLQLFTTLVVILGNNLQLQIELTLTRIFSILLDDGTANNSSSENKNKPSIIKELLIEQISILWTRSPSFFTSTFINFDCNLDRADVSINFLKALTKLALPESALTTTESVPPICLEGLVSLVDDMFDHMKDIDREEFGRQKNEMEILKKRDRKTEFIECTNAFNEKPKKGIPMLIEKGFIASDSDKDIAEFLFNNNNRMNKKTIGLLLCHPDKVSLLNEYIRLFDFSGLRVDEAIRILLTKFRLPGESQQIERIIEAFSSAYCENQDYDPSKISDNAEDDISTVQPDADSVFILSYSIIMLNTDLHNPQVKEHMSFEDYSGNLKGCCNHKDFPFWYLDRIYCSIRDKEIVMPEEHHGNEKWFEDAWNNLISSTTVITEIKKDTQSVMDKLTPLELLNFDRAIFKQVGPSIVSTLFNIYVVASDDHISTRMITSLDKCSYISAFFDFKDLFNDILNSIAKGTTLINSSHDDELSTLAFEYGPMPLVQIKFEDTNTEIPVSTDAVRFGRSFKGQLNTVVFFRIIRRNKDPKIFSKELWLNIVNIILTLYEDLILSPDIFPDLQKRLKLSNLPKPSPEISINKSKESKGLLSTFASYLKGDEEPTEEEIKSSKKAMECIKSSNIAASVFGNESNITADLIKTLLDSAKTEKNADNSRYFEAELLFIIELTIALFLFCKEEKELGKFILQKVFQLSHTKGLTKRTVRRMLTYKILLISLCADQTEYLSKLINDELLKKGDIFTQKFFATNQGKEFLKRLFSLTESEFYRGFLLGNENFWKFLRKVTAMKEQSESIFEYLNESIKTDSNILTNENFMWVLGLLDEISSMGAVGNHWEIEYKKLTESGHKIDKENPYKKSIELSLKSIQLTSHLLEDNNDLRKNEIFAIIQALAHQCINPCKQISEFAVVTLEQTLINKIEIPTNEMESVEELIEGGLLPLLNSSETQEDQKILISSILTIISNVYLHYLKLGKTSNETFLKILSIFNKFVEDSDIEKKLQQLILDKKSIEKGNGSSSHGSAHEQTPESNDVEIEATAPIDDNTDDDNKPKLSDVEKD
notes: Gea2, guanine nucleotide exchange factor for Arf1, Saccharomyces cerevisiae, full length; also called Arf-GEF Gea2; source: Pichia pastoris (KM71H), overexpressed, purified (Ni-NTA, MonoQ, TEV cleavage, Superdex 200 Increase SEC); not shown: His6, N-terminal, cleaved

How the values were obtained:
[1] = target: B2; experiment: cryo-EM structure; Gea2-Arf1 complex: 1 mg Gea2, 5 mg ΔN17-Arf1 and 250 units alkaline phosphatase at 4°C overnight, then SEC (20 mM Tris pH 8.0, 300 mM NaCl, 1 mM DTT); nucleotide-free activation intermediate; ~5 mg/mL with 2 mM fluorinated fos-choline-8; conditions: both partners purified
[2] = target: the molecule itself; experiment: cryo-EM structure; Gea2 alone, ~5 mg/mL in SEC buffer (20 mM Tris pH 8.0, 150 mM NaCl, 1 mM DTT) with 2 mM fluorinated fos-choline-8; three dimeric conformations (closed/closed, closed/open, open/open)

Binder | binding result [1] | stoichiometry N [2]
B1 | binds | 
B2 |  | 2
